{"source": "patent US5994296A", "about": "“Human mutant tissue factor compositions useful as tissue factor antagonists” (priority 1998, dated 1999)", "system": "Factor X", "experiment": "ability to functionally cleave Factor X (reaction rate Vmax) of D44 mutants", "assay_type": "biochemical", "conditions": "D44 substitution study", "method": "The lysate was prepared by treating cell pellets with 15 mM octyl-glucopyranoside for 15 minutes at 37C. followed by a 3-fold dilution. […] Formed TF-VIIa complexes were quantified with substrate factor X added at 100 nM for a fixed time. Samples were then removed from the reaction and quenched in 100 mM EDTA in TBS (20 mM Tris-HCl, 140 mM NaCl, pH 7.4). The formation of Xa in the quenched reaction was determined with the chromogenic peptidyl substrate, Spectrozyme FXa (1.2 mM). The rate of Spectrozyme hydrolysis, measured as the increase in absorbance (mOD/min), was determined at ambient temperature in a kinetic plate reader (Molecular Devices, Mountain View, Calif.) followed by quenching and monitoring of product factor Xa formation using the Spectrozyme FXa.\nAdditional mhuTF mutants were prepared based on amino acid residue substitutions at amino acid residue position number D44.", "data": [{"molecule": "R44: mhuTF with arginine substituted in place of D44 (protein, UniProt P13726 33-251, looked up, variant D44R, extracellular domain, mhuTF with arginine substituted in place of D44) extracellular domain: SGTTNTVAAYNLTWKSTNFKTILEWEPKPVNQVYTVQISTKSGRWKSKCFYTTDTECDLTDEIVKDVKQTYLARVFSYPAGNVESTGSAGEPLYENSPEFTPYLETNLGQPTIQSFEQVGTKVNVTVEDERTLVRRNNTFLSLRDVFGKDLIYTLYYWKSSSSGKKTAKTNTNEFLIDVDKGENYCFSVQAVIPSRTVNRKSTDSPVECMGQEKGEFRE", "values": [{"measurement": "loss of function (specific functional activity, Vmax) compared to wild-type", "value": 75, "unit": "%"}, {"measurement": "reaction rate (Vmax)", "setting": "Factor X cleavage", "value": "~0.5", "unit": "per second"}]}]}
